# Data as given in patent US20110009314A1, “Single-Chain Insulin Analogues and Pharmaceutical Formulations Thereof” (Novo Nordisk A/S, priority 2006, published 2011).
# Experiment: Size exclusion chromatography (SEC, gelfiltration) migration of insulin analogues and mixtures relative to the standards X2 (monomer) and HSA
# Format: physicochemical
# Conditions: D 1.2 mM, Zn 0.6 mM
# Protocol: Migration of the insulin analogues and insulin analogue combinations were measured in relation to the standards mentioned below.
# The test mixtures were formulated with conventional pharmaceutical adjuvants and additives. All mixtures were formulated with 16/16 mM phenol/cresol. Zinc was added as zinc acetate in various amounts. pH was 7.5.
# Size exclusion chromatography (SEC) was performed essentially as described in Havelund et al. 2004 Pharmaceutical research, 21, 1498-1504. The chromatographic system was a Superose 6 HR PC 6/30 column (GE healthcare) eluted by tris-buffered isotonic saline (NaCl-140 mM, tris/HCl 10 mM, NaN3 0.01%, pH 7.5 at 37° C., injecting 1% of column volume and using a flow of 90 min per column volume and UV detection at 276 nm. The references were a stable insulin monomeric insulin X2 (AspB9, GluB27 human insulin, zinc free), a stable hexameric insulin: Co(III) insulin, albumin (HSA), and covalent albumin (formed in solution).
substance,measurement,value
Lys^B29(N^ε-(N-lithocholyl-γ-glutamyl)) des(B30) human insulin [Compound D],Measured SEC migration % HSA,78%
same,Measured SEC migration % X2,15%
